{
  "source": "paper PMC12251713",
  "about": "“The Novel Transcription Factor BnaA01.KAN3 Is Involved in the Regulation of Anthocyanin Accumulation Under Phosphorus Starvation”",
  "binders": {"B1": {"name": "P1BS EMSA probe (dsDNA)", "DNA 1": "AGACTTTGATTTGCATTATTGCATATACGTAGTAGTATAATGGTACTATC", "DNA 2": "GATAGTACCATTATACTACTACGTATATGCAATAATGCAAATCAAAGTCT"}},
  "target": "T1, BnaA01.KAN3-His (Brassica napus cv. Zhongshuang 11, UniProt A0A816XN48 1-312)",
  "T1 sequence": "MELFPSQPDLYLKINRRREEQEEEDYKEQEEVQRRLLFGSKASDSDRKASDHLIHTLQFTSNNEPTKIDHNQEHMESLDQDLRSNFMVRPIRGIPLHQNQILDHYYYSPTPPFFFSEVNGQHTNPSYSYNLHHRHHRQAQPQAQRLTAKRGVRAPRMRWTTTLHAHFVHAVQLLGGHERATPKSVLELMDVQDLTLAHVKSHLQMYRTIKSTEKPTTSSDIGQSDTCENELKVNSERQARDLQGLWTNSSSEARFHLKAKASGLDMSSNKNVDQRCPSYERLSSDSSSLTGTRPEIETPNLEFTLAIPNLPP",
  "experiment": "EMSA; LightShift Chemiluminescent EMSA Kit (Thermo 20148); buffer, salt, pH and temperature not stated",
  "conditions": "protein: recombinant; tags: His (pET28a); label: biotin 3' end; blunt",
  "data": [
    {"binder": "B1", "values": [
      {"measurement": "binding result", "value": "binds"}
    ]}
  ]
}
